Results on 1 substance are retold here after paper PMC6776994.

Assay [1] deals with CCR5 chemokine receptor (human) (UniProt P51681). The experiment in a line: plasmonic metal-enhanced fluorescence imaging of cells.
For assay [2] the target is unchanged. Nature of the assay: flow cytometry on cells. In general terms: In flow cytometry, cells or beads pass a laser one at a time.

Chain of UniProt P51681 (P51681 whole entry): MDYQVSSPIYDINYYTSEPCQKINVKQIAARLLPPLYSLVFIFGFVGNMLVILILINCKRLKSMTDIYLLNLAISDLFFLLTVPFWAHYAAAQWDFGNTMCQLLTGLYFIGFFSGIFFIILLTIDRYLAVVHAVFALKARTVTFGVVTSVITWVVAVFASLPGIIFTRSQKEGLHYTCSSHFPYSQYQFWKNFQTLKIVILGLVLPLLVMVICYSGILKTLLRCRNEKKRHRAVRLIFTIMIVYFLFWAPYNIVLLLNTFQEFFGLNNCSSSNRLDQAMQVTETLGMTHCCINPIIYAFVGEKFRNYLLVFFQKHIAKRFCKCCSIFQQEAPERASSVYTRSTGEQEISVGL

For “full length single chain (FLSC) IgG1 (Fc fusion)”, in assay [1], the fold increase of CCR5 binding on MVC-treated against untreated cells stood at 1.65 fold. The substance also had a reduction in CCR5 intensity (staining by mAb 45531) after FLSC IgG1 in assay [2] of 10%.
